The supplement of paper PMC9170038

Test system: K4 kissing-loop RNA reporter
Test: apparent KD of K4 kissing-loop reporter; higher = weaker reporter binding
Conditions: Eterna round: R107
Procedure: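 RNA-MaP round R107: designed RNA switches with theophylline, tryptophan, arginine or FMN aptamers are transcribed on-chip within common flanks. They are titrated with a labelled K4 kissing-loop RNA reporter in RNA-MaP buffer (100 mM Tris pH 7.5, 80 mM KCl, 4 mM MgCl2), without ligand or with the indicated ligand. Median apparent KD per design.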

[1] = input ligand: theophylline 20 uM
[2] = input ligand: tryptophan 2.4 mM
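Further: bound reporter read as fluorescence of individual clusters on recovered sequencing chips by microscopy, with normalized cluster intensities fitted with a binding model.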

UUUCGGUUCUGAGGAUAUUCGGACAAAUAUAGUGAUGUUGUAUAAGGAGGAGGGUGUUGGCAGUGCGGAGAAGGCAGACCAGGAU [ExFMNB.W]
apparent KD of K4 kissing-loop reporter (input ligand: FMN 200 uM): 853 nM
apparent KD of K4 kissing-loop reporter (input ligand: arginine 13.2 mM): 557 nM
apparent KD of K4 kissing-loop reporter (input ligand: none): 1170 nM
apparent KD of K4 kissing-loop reporter [1]: 878 nM
apparent KD of K4 kissing-loop reporter [2]: 546 nM

UGAUACCAGACGGCCGCCACUGCACCAGUCAAUGACUGAGUGCGGUAGUGCUCAGUGAUGUUGAGUAGGACCGGGUCUGGUAUCU [Mod of Eli's TrypBX 8 v3]
apparent KD of K4 kissing-loop reporter (input ligand: FMN 200 uM): 148 nM
apparent KD of K4 kissing-loop reporter (input ligand: arginine 13.2 mM): 124 nM
apparent KD of K4 kissing-loop reporter (input ligand: none): 131 nM
apparent KD of K4 kissing-loop reporter [1]: 130 nM
apparent KD of K4 kissing-loop reporter [2]: 130 nM

CAAUGAAUAUAAGAUGAUAUCAUAACAGAAGGAGCGAGUGAUAACUCAGGUAGGUCGCUGAAUUUAUCGAGUGAUGUUCGAUAAA [Same State Arginine A GF10]
apparent KD of K4 kissing-loop reporter (input ligand: FMN 200 uM): 208 nM
apparent KD of K4 kissing-loop reporter (input ligand: arginine 13.2 mM): 158 nM
apparent KD of K4 kissing-loop reporter (input ligand: none): 197 nM
apparent KD of K4 kissing-loop reporter [1]: 176 nM
apparent KD of K4 kissing-loop reporter [2]: 183 nM

UGUCAUUGGUCGGCCGCCACUACAAGGUCAAAGACCAAAGAGUGAUGUUCUUAGACGAAAGUCAGUAGGACCGGGACCGAUGACU [TrypBS 8 #SwitchBubble #K4Middle]
apparent KD of K4 kissing-loop reporter (input ligand: FMN 200 uM): 1050 nM
apparent KD of K4 kissing-loop reporter (input ligand: arginine 13.2 mM): 707 nM
apparent KD of K4 kissing-loop reporter (input ligand: none): 1320 nM
apparent KD of K4 kissing-loop reporter [1]: 674 nM
apparent KD of K4 kissing-loop reporter [2]: 274 nM

GGAUAGGACAGAGGAUAUGGAGAGUCUACAAAGUAGGCUCAUAAUCCUUGAAUGGAAGUGAUGUUUCCAGAAGGCUGUCCUAUCG [FmnBX 17 - #SwitchBubble #StaticStem #Palindromic]
apparent KD of K4 kissing-loop reporter (input ligand: FMN 200 uM): 664 nM
apparent KD of K4 kissing-loop reporter (input ligand: arginine 13.2 mM): 99.9 nM
apparent KD of K4 kissing-loop reporter (input ligand: none): 103 nM
apparent KD of K4 kissing-loop reporter [1]: 101 nM
apparent KD of K4 kissing-loop reporter [2]: 119 nM

AAGUUGAACUGAAGGAGCGAGAAAUAGAAUGUAAGAAUAUAUGCUAGUGAUGUUAGAAAUUCUCAGGUAGGUCGCAGUAAGAAUU [V1]
apparent KD of K4 kissing-loop reporter (input ligand: FMN 200 uM): 368 nM
apparent KD of K4 kissing-loop reporter (input ligand: arginine 13.2 mM): 357 nM
apparent KD of K4 kissing-loop reporter (input ligand: none): 442 nM
apparent KD of K4 kissing-loop reporter [1]: 510 nM
apparent KD of K4 kissing-loop reporter [2]: 317 nM

CGCAAUAUUACGGAGUGAUGUUUCGUAGUCCGAGGACCGGUACGGCCGCCACUCGCUGGCGUUGGCCCAUAGACCGACGGAAUCG [theeternabot_sameState_KL_Trp_A_39]
apparent KD of K4 kissing-loop reporter (input ligand: FMN 200 uM): 246 nM
apparent KD of K4 kissing-loop reporter (input ligand: arginine 13.2 mM): 252 nM
apparent KD of K4 kissing-loop reporter (input ligand: none): 257 nM
apparent KD of K4 kissing-loop reporter [1]: 236 nM
apparent KD of K4 kissing-loop reporter [2]: 238 nM

GUUACGCAUGGAAGGAGCGCGAAUUUAAUUAGUGAGUGAUGUUCACAUAAAAUAUAUAAUACGCAGGUAGGUCGCCAUGUGUAAC [Ex Arginine B K4 1]
apparent KD of K4 kissing-loop reporter (input ligand: FMN 200 uM): 80.8 nM
apparent KD of K4 kissing-loop reporter (input ligand: arginine 13.2 mM): 83.1 nM
apparent KD of K4 kissing-loop reporter (input ligand: none): 79.3 nM
apparent KD of K4 kissing-loop reporter [1]: 82.8 nM
apparent KD of K4 kissing-loop reporter [2]: 75 nM

GCGCGGCACAGUGAUGUUGUGCCUCGGAGACGAGGACCGGUACGGCCGCCACUCGUCCGCGCAGCUGAGGCAAAAGCCUCGGCAA [Omei KL Tryp A SS B v4]
apparent KD of K4 kissing-loop reporter (input ligand: FMN 200 uM): 382 nM
apparent KD of K4 kissing-loop reporter (input ligand: arginine 13.2 mM): 393 nM
apparent KD of K4 kissing-loop reporter (input ligand: none): 473 nM
apparent KD of K4 kissing-loop reporter [1]: 447 nM
apparent KD of K4 kissing-loop reporter [2]: 128 nM

UUAGGCUCUCUUCUCAUUCGCUUAACCGAUACCAGAGUAAGCCCUCUCCCUUGGCAGCGGAGUGAUGUUCCGAGUGUUGAUAUUG [theeternabot_exclusion_KL_Theo_A_44]
apparent KD of K4 kissing-loop reporter (input ligand: FMN 200 uM): 93.1 nM
apparent KD of K4 kissing-loop reporter (input ligand: arginine 13.2 mM): 113 nM
apparent KD of K4 kissing-loop reporter (input ligand: none): 113 nM
apparent KD of K4 kissing-loop reporter [1]: 130 nM
apparent KD of K4 kissing-loop reporter [2]: 107 nM

CGGCCGUUAUGAGAUACCAGAGUGGCGACCAGUGAUGUUGGUCGACGCUUGCGGUCGUCUCUCCCUUGGCAGCUUAGUACGAAAG [Inisar]
apparent KD of K4 kissing-loop reporter (input ligand: FMN 200 uM): 97.4 nM
apparent KD of K4 kissing-loop reporter (input ligand: arginine 13.2 mM): 88.2 nM
apparent KD of K4 kissing-loop reporter (input ligand: none): 91.8 nM
apparent KD of K4 kissing-loop reporter [1]: 73.8 nM
apparent KD of K4 kissing-loop reporter [2]: 91.3 nM

GGGUCAGCGCGAAGGAGCGCCCUGACAGGUUGCUGCCGUGGGCAGUGAUGUUGCUCAGUCCGGCAGGUAGGUCGCGUGCUGACCC
apparent KD of K4 kissing-loop reporter (input ligand: FMN 200 uM): 202 nM
apparent KD of K4 kissing-loop reporter (input ligand: arginine 13.2 mM): 151 nM
apparent KD of K4 kissing-loop reporter (input ligand: none): 183 nM
apparent KD of K4 kissing-loop reporter [1]: 166 nM
apparent KD of K4 kissing-loop reporter [2]: 169 nM

GCUGCCAUGGCAGGAUAUAUAAAUGCUGAGUGAUGUUCUGCAUCAUAUGUCCCUGACCGCGGCGGUGUAGAAGGGCCAUGGCAGC
apparent KD of K4 kissing-loop reporter (input ligand: FMN 200 uM): 135 nM
apparent KD of K4 kissing-loop reporter (input ligand: arginine 13.2 mM): 93 nM
apparent KD of K4 kissing-loop reporter (input ligand: none): 107 nM
apparent KD of K4 kissing-loop reporter [1]: 97.1 nM
apparent KD of K4 kissing-loop reporter [2]: 103 nM

CCCUAUAUAUGCAGUGAUGUUGCAACUGAUACCAGUAUCGAAAGAUACCCUUGGCAGCGGAAAACCGCUACGUAAUUUAAUAGGG [Ex Theophylline A K4 21]
apparent KD of K4 kissing-loop reporter (input ligand: FMN 200 uM): 384 nM
apparent KD of K4 kissing-loop reporter (input ligand: arginine 13.2 mM): 422 nM
apparent KD of K4 kissing-loop reporter (input ligand: none): 419 nM
apparent KD of K4 kissing-loop reporter [1]: 461 nM
apparent KD of K4 kissing-loop reporter [2]: 265 nM

UACAAACGUAGUGAUGUUACGUACUCUGAUACCAGACAACUCUAAGUCCCUUGGCAGCAGUCACUUAGCUUAUUAUUUUCUCAAA [JR_Nu_ExcTheophyA_Sub026]
apparent KD of K4 kissing-loop reporter (input ligand: FMN 200 uM): 106 nM
apparent KD of K4 kissing-loop reporter (input ligand: arginine 13.2 mM): 134 nM
apparent KD of K4 kissing-loop reporter (input ligand: none): 116 nM
apparent KD of K4 kissing-loop reporter [1]: 130 nM
apparent KD of K4 kissing-loop reporter [2]: 103 nM

UGUACCGAGUGAGGAUAUGUCGUCGAAAGACGAAAUGGAGUGAUGUUCCUUAAACUGCGAAAGCAGACAGAAGGCACUUGGUACU [FmnBS 29 G11+C75]
apparent KD of K4 kissing-loop reporter (input ligand: FMN 200 uM): 129 nM
apparent KD of K4 kissing-loop reporter (input ligand: arginine 13.2 mM): 171 nM
apparent KD of K4 kissing-loop reporter (input ligand: none): 192 nM
apparent KD of K4 kissing-loop reporter [1]: 170 nM
apparent KD of K4 kissing-loop reporter [2]: 168 nM

GAGGUACAGGCGGCCGCCACUAGUGAUGUUAGUGAUGUUUGAUACUGUAUAUAUCGGCGUGUAGAUAGGACCGGGCCUGAUGGAG [znmkmullin]
apparent KD of K4 kissing-loop reporter (input ligand: FMN 200 uM): 122 nM
apparent KD of K4 kissing-loop reporter (input ligand: arginine 13.2 mM): 78.7 nM
apparent KD of K4 kissing-loop reporter (input ligand: none): 100 nM
apparent KD of K4 kissing-loop reporter [1]: 109 nM
apparent KD of K4 kissing-loop reporter [2]: 91.8 nM

AAGAAGAAUGGAAGGAGCGAGCAGAAAUAACCAGUGAUGUUGGAAAGCCUUAUUGCUUAAGCUCAGGUAGGUCGCCAAGAAAAGA [Mostly trial and error]
apparent KD of K4 kissing-loop reporter (input ligand: FMN 200 uM): 158 nM
apparent KD of K4 kissing-loop reporter (input ligand: arginine 13.2 mM): 181 nM
apparent KD of K4 kissing-loop reporter (input ligand: none): 205 nM
apparent KD of K4 kissing-loop reporter [1]: 226 nM
apparent KD of K4 kissing-loop reporter [2]: 171 nM
